B1: antibody 1261 (antibody, human IgG1, kappa, V domains shown)
VH: EVQLVESGGGLVKPGGSLKLSCAVSGFTFSSYVMSWVRQTPEKRLEWVATITSGGRNIYYLDSVKGRFTISRDNAKNTLYLQMSSLRSEDTAMYYCARHEDYRYDGYYAMDYWGQGTSVTVSS
VL: QIVLTQSPAIMSASPGEKVTITCSASSSVSYMHWFQQKPGTSPKLWIYSTSNLASGVPARFSGSGSGTSYSLTISRMEAEDAATYYCQQRSSYPYTFGGGTKLELKR
notes: Chimeric IgG1 kappa
B2: antibody 1257 (antibody, human IgG1, kappa, V domains shown)
VH: EVQLQQSGPELVKPGASVKIPCKTSGYTFTDYNMAWVKQSHGKSLEWIGDIIPNNGGAIYNQKFKGKATLTVDKSSSTASMELRSLTSEDTAVYFCARKNIYYRYDGAGALDYWGQGTSVTVSS
VL: QIVLTQSPAIMSASPGEKVTMTCSASSSVSYIYWYQQKPGSSPRLLIYDASNLASGVPVRFSGSGSGTSYSLTISRMEAEDAATYYCQQWSSYPITFGSGTKLEIKR
notes: Chimeric IgG1 kappa
B3: antibody 1344 (antibody, human IgG1, kappa, V domains shown)
VH: QVQLKESGPGLVAPSQSLSITCTVSGFSLTIYGVHWVRQPPGKGLEWLGVIWAGGNTNYNSALMSRLSISKDNSKSQVFLKMNSLQTDDTAMYFCARGYGYNLDYWGQGTTLTVSS
VL: DIQMTQTTSSLSASLGDRVTISCSASQGISNYLNWYQQKPDGTVKLLIYYTSSLHSGVPSRFSGSGSGTDYSLTISNLEPEDIATYYCQQYSKLPYTFGGGTKLEIKR
notes: Chimeric IgG1 kappa
B4: antibody 1320 (antibody, human IgG1, kappa, V domains shown)
VH: QVQLQQPGAELVKPGASMKLSCKASGYTFTNYWMHWVKQRPGQGLEWIGEINPSNGRTNYNEKFKSKATLTVDKSSSTAYMQLSSLTSEDSGVYYCAKGGNYYDYDWDYWGQGTTLTVSS
VL: DIQMTQTTSSLSASLGDRVTISCSASQDISNYLNWYQQKPDGTVKLLIYHTSTLHSGVPSRFSGSGSGTDYSLTISNLEPEDIATYYCQQYSKLPWTFGGGTKLEIKR
notes: Chimeric IgG1 kappa
B5: antibody 1308 (antibody, human IgG1, kappa, V domains shown)
VH: EVQLQQSGAELVRPGSSVKISCKASGYAFSSYWMNWVRQRPGQGLEWIGQIYPGDGDTNYNGKFKGRATLTANKSSSTAYMQLSSLTSEDSAVYFCARRASSLYDVYPYYFDYWGQGTTLTVSS
VL: DIQMTQTTSSLSASLGDRVTISCRASQDISNYLNWYQQKPDGTVKVLIYYTSRLHSGVPSRFSGSGSGTDYSLTISNLEQEDIATYFCQQGNTLPYTFGGGTKLEIKR
notes: Chimeric IgG1 kappa
B6: antibody 1260 (antibody, human IgG1, kappa, V domains shown)
VH: QVQLKESGPGLVAPSQSLSITCTVSGFSLTTYGVHWVRQPPGKGLEWLGVIWAGGSTNYNSALMSRLSIKKDNSKSQVFLKMNSLQTDDTAMYYCARAYGYNFDYWGQGTTLTVSS
VL: DIQMTQTTSSLSASLGDRVTISCSASQGITNYLNWYQQKPDGTVKLLIYYSSSLHSGVPSRFSGSGSGTDYSLTISNLEPEDIATYYCQQYSEIPYTFGGGTKLELKR
notes: Chimeric IgG1 kappa
B7: antibody 1347 (antibody, human IgG1, kappa, V domains shown)
VH: QVQLKESGPGLVAPSQSLSITCTVSGFSLTGHGVNWVRQPPGKGLEWLGMIWGDGSTDYNSTLKSRLSISKDNSKSQVFLKMNSLQTDDTARYYCARGYGYLYYFDYWGQGTTLTVSS
VL: ENVLTQSPAIMSASPGEKVTMTCRASSSVSSSYLHWYQQKSGASPKLWIYSTSNLASGVPARFSGSGSGTSYSLTVNSVETEDAATYYCHQYSGFPFTFGSGTKLELKR
notes: Chimeric IgG1 kappa
B8: antibody 1030 (antibody, human IgG1, kappa, V domains shown)
VH: EVQLVESGGGLVKPGGSLKLSCAASGFTFSSYALSWVRQTPERRLEWVASISGVGSTYFPDSVKGRFTMSRDNARNILYLQMSSLRSEDTAMYYCARGSDGYFYAMDYWGQGTSVTVSS
VL: DIVLTQSPASLAVSLGQRATISCRASKSVSTSGYSFMHWYQLKPGQPPKLLIYLASNLESGVPARFSGSGSGTDFTLNIHPVEEEDAATYYCQHSREFPLTFGGGTKLEIKR
notes: Chimeric IgG1 kappa
B9: antibody 1208 (antibody, human IgG1, kappa, V domains shown)
VH: EVQLVESGGGLVKPGGSLKLSCAASGFAFSSYDMSWVRQTPEKRLEWVAYIGSGDDNTHYPDSVKGRFTISRHNAKNTLYLQMSSLKSEDTAMYYCARQKYGNYGDTMDYWGQGTSVTVSS
VL: DVVMTQTPLSLPVSLGDQASISCRSSQSLVHSNGNTYLHWYLQKPGQSPKLLIYKVSNRFSGVPDRFSGSGSGTDFTLKISRVEAEDLGVYFCSQSTHVPTFGGGTKLEIKR
notes: Chimeric IgG1 kappa; also called clone 1208
B10: antibody 1284 (antibody, human IgG1, kappa, V domains shown)
VH: QVQLQQPGAELVKPGASVKLSCKASGYTFTSDWMHWMKQRPGQGLEWIGEINPSNGRSSYNEKFKSKATLTVDKSSSTAYMQLSSLTSEDSAVYYCARIGGIYVETYWGQGTLVTVSS
VL: DIVLTQSPASLAVSLGQRATISCRASQSVSTSTYSYMHWYQQKSGQPPKLLIKYASNLESGVPARFSGSGSGTDFTLNIHPVEEEDTATYYCQHSWEIPWTFGGGTKLEIKR
notes: Chimeric IgG1 kappa
B11: antibody 992 (antibody, human IgG1, kappa, V domains shown)
VH: EVQLQQPGSELVRPGASVKLSCKASGYTFTSYWMHWVKQRPGQGLEWIGNIYPGSRSTNYDEKFKSKATLTVDTSSSTAYMQLSSLTSEDSAVYYCTRNGDYYVSSGDAMDYWGQGTSVTVSS
VL: DIQMTQTTSSLSASLGDRVTISCRTSQDIGNYLNWYQQKPDGTVKLLIYYTSRLHSGVPSRFSGSGSGTDFSLTINNVEQEDVATYFCQHYNTVPPTFGGGTKLEIKR
notes: Chimeric mouse/human IgG1 kappa; the VL entry includes the human kappa constant region

Legend:
[1] = target: T1, wild type full length EGFR purified from A431 cells (human, UniProt P00533 25-1210); assay: competition ELISA, competitor Ab-1; design: concentration or dose not given beside the values
T1 construct: mature; Bought; coated on ELISA wells; also called full length EGFR receptor antigen; Sigma E3641
Protocol: The ELISA was adapted from the descriptions published in Ditzel et al, 1995, The Journal of Immunology, Vol 154, Issue 2 893-906.
An epitope blocking ELISA was performed by diluting full length EGFR receptor antigen to 0.5 μg/ml in PBS; and coating 50 μl/ELISA well overnight at 4° C. […] Finally wells were washed four times with PBS-T and plates were developed by adding 50 μl/well TMB and read at 620 nm every 5-15-30 min. The degree of inhibition was calculated from the formula: % inhibition=(1−(OD competition/OD no competition (PBS)))×100.

[2] = target: T2, recombinant human EGFR extracellular domain with 6xHis (human, UniProt P00533 25-645); assay: SPR competition, EGFR ECD first saturated with mix N=6 1261+1347+992+1024+1030+1361
T2 construct: In-house produced; also called 6xHis EGFR ECD; soluble human EGFR ECD; not shown: 6xHis tag
Protocol: (§1) SPR analysis was performed on a Biacore 3000 machine containing four flow cells. A CM5 Biacore chip was conjugated with 10,000 Resonance units (Ru) polyclonal anti-His antibody to flow cells 1-4 according to the manufacturer's instructions. […] Immediately after antigen injection the maximal binding of the Anti-EGFR mAb without competition was established in each flow cell during a reference run. Briefly 5 μl antibody at a concentration of 40 μg/ml was injected over all flow cells with captured EGFR followed by stripping of the antibody/antigen complex with a low pH acid wash (10 sec. contact time with 10 mM Glycine-HCl, pH2). After the determination of Anti-EGFR antibody maximal binding to each flow cell, a competition run was performed during the same Biacore cycle. Flow cells were first saturated with EGFR ECD antigen followed by injection of different reference antibodies or Anti-EGFR antibodies into separate flow cells using the same antigen saturating conditions as outlined above. This step was immediately followed by a second injection of Anti-EGFR antibody over the flow cell saturated with EGFR antigen and competition antibody to minimize the dissociation of either antigen or blocking antibody. Then the antibody/antigen complexes were stripped off with a low pH acid wash (10 sec. contact time with 10 mM Glycine-HCl, pH 2) and the whole cycle beginning with the reference run was repeated with a new Anti-EGFR antibody. The degree of inhibition of tested Anti-EGFR antibodies were determined by comparing the Ru max value of the individual Anti-EGFR antibody before and after competition by introduction of report points recorded two seconds before and after injection of each sample.

[3] = target: T2, recombinant human EGFR extracellular …; assay: SPR, reference cycle of the run with mix N=6
Protocol: as §1

[4] = target: T2, recombinant human EGFR extracellular …; assay: SPR, EGFR ECD without competitor
Protocol: as §1

[5] = target: T3, full length human EGFR expressed on the cell surface (human, UniProt P00533 25-1210); assay: FACS on CHO cells transfected with full length Human EGFR
T3 construct: whole, on cells; also called EGFR on A431-NS cells; EGFR on HN5 cells
Protocol: (§2) Bound antibody was detected with a PE labelled goat F(ab′)₂ anti-human IgG FC. Gating was performed on uniform cells (SCC/FCS properties) expressing EGFR. Binding is expressed as % maximal antibody binding at 1 nM concentration.
(§3) Briefly quantitative FACS analysis was performed on a BD FACS array Bioanalyzer System to determine the number of EGFR molecules expressed on the surface of CHO cells transfected with either Human or Cynomolgus full length EGFR. […] Antibodies were incubated with cells for 14 hours on a shaker, to promote full antigen saturation at all antibody concentrations tested, while FACS buffer was added 0.02% NaN₃ and temperature kept at 4° C. to prevent receptor internalization. After incubation, cells were pelleted at 1200 RPM for 5 min at 4° C. and resuspended in 200 ul FACS buffer. Next cells were stained with a secondary Goat F(ab′)₂ anti-Human IgG FcGamma PE diluted 1:500 and incubated for 30 min at 4° C. on a shaker. Finally cells were washed twice in FACS buffer and analyzed on a BD FACS array Bioanalyzer System with gating on EGFR expressing CHO cells displaying uniform forward/side scatter properties.

[6] = target: T4, full length Cynomolgus EGFR expressed on CHO cells (Cynomolgus monkey (Macaca fascicularis), UniProt P55245 25-1210 (rhesus entry)); assay: FACS on CHO cells transfected with full length Cynomolgus EGFR
T4 construct: The entry was cloned including the signal peptide; also called Cynomolgus full length EGFR
Protocol: as §2, §3

[7] = target: T3, full length human EGFR expressed on the …; assay: cell ELISA, IgG titrated on unfixed A431-NS cells
Protocol: (§4) Cell ELISA: The ELISA was performed essentially as described in example 15 with modifications. Cells were left unfixed to allow conformational EGFR flexibility after antibody additions. Briefly, 10,000 A431-NS cells were grown in 96 well ELISA plates containing DMEM with added 0.5% FCS and 1% P/S at 37° C., 5% CO₂ overnight. […] 25 μl DMEM containing 1% BSA was added to wells used for testing of IgG antibodies without added Fab fragments. […] Next, wells were washed four times with PBS and 50 μl of a secondary monoclonal Mouse-anti-Human (Fc specific) HRP conjugate diluted 1:5000 in DMEM containing 1% BSA was added and incubated on ice for 30 min. Finally wells were washed four times with PBS and plates developed by adding 50 μl/well TMB substrate and read at 620 nm every 5-15-30 min. After incubation with substrate the reaction was stopped by addition of 1 M H₂SO₄ and absorbance read at 450 nm. The functional affinity expressed as ED50 values were calculated by subtraction of the average background binding with secondary reagent only, followed by normalization of the binding curves by plotting % maximal binding relative to each antibody tested.
(§5) Investigations of antibody induced binding enhancements were determined by concurrent ELISA binding studies, employing same secondary antibody reagent and incubation times.

[8] = target: T3, full length human EGFR expressed on the …; assay: cell ELISA, IgG titrated on unfixed A431-NS cells; given as ED50
Protocol: as §4, §5

Row | Binder | % inhibition [1] | % inhibition [2] | Rumax competition cycle [2] | Rumax reference cycle [3] | other results
1 | B1 | 3% | 95% | 7 Ru | 135 Ru | Rumax reference cycle [4]: 157 Ru
2 | B2 | 6% |  |  |  | 
3 | B3 | 19% |  |  |  | 
4 | B4 | 9% |  |  |  | EC50 (read off the curve) [5]: ~0.01 nM; binding result [6]: no binding (tested: 1 nM)
5 | B5 | 4% |  |  |  | 
6 | B6 | 12% |  |  |  | 
7 | B7 |  | 80% | 19 Ru | 91 Ru | Rumax reference cycle [4]: 75 Ru
8 | B8 | 91% | 87% | 12 Ru | 87 Ru | Log ED50 [7]: 0.33; EC50 [8]: 2.2 nM
9 | B9 | 82% |  |  |  | 
10 | B10 | 12% |  |  |  | 
11 | B11 | 78% | 116% | -14 Ru | 85 Ru | EC50 (read off the curve) [5]: ~0.01 nM; Log ED50 [7]: -0.24; EC50 (read off the curve) [6]: ~0.01 nM; EC50 [8]: 0.6 nM; Rumax reference cycle [4]: 81 Ru

Reference: US20110135636A1 (SYMPHOGEN A S, published 2011)
